Data published in patent publication US20100257638.

System: IL-1-L0-Fok1 zinc finger nuclease (IL-1-Fok1) (synthetic construct)
Test: cell_activity
Conditions: inter-chromosomal HR with donor pDAB1600 in tobacco NT1-240; NT1-260 0.1; BY2-380 0.2; donor only 0

## ATTATCCGAGTTTAATAGAACTCGGATAAT (double strand) [IL-1-L0-Fok1 recognition site]
  activity (events per selection plate): 1.2
